For one data set, the system named is MSU1.1 human fibroblasts. The data set can be described thus: Centrosome targeting of GFP fusion after transient transfection. The settings on record: 2-4 hr after transfection. It is filed as cell-based. As for the experimental part:
To allow transient expression of a human p80 WD40-GFP fusion protein in HeLa cells, a DNA fragment containing amino acids 1-263 of human p80 katanin was generated by PCR amplification, placing a BamHI site and a Kozak consensus at the predicted translation start and an EcoRI site after the codon for a.a. 263. This BamHI-EcoRI fragment was ligated into the GFP fusion vector pEGFP-N1 (Clontech).
Both MSU1.1 and HeLa cells were grown on 18 mm glass coverslips in Optimem medium (Life Technologies) supplemented with 10% fetal bovine serum, penicillin and streptomycin. Plasmids were transfected using Superfect Reagent (Qiagen) for 2 hr after which coverslips were washed with PBS and placed in fresh culture medium at 37° C. with 5% CO2 for 1-24 hr.
For imaging of GFP-fluorescence and immunofluorescence with the human p80 katanin antibody or with the γ-tubulin antibody, monoclonal GTU88 (Sigma Chemical), cells on coverslips were fixed either in −20° C. methanol or in 0.5×PBS, 3.7% formaldehyde, 75% methanol at 22° C. for 10 min followed by rehydration in TBST. Antibody labelling was carried out in TBST containing 4% BSA. Images were captured with a Nikon Microphot SA microscope, 100×Plan Fluor 1.3 objective, Photometrics Quantix camera and IP Lab Spectrum software (Scanalytics).

The test system of data set [1] is Taxol-stabilized, rhodamine-labeled microtubules. As to the kind of experiment: Microscope-based microtubule severing assay. It is filed as biochemical. The settings on record: p60, p60/p80 0.1 μM; p80 0.5 μM (5-fold higher). As for the experimental part: FIGS. 5A, 5B, and 5C illustrate the activities of recombinant katanin subunits. […] Taxol-stabilized, rhodamine-labeled microtubules were adsorbed onto the surface of a microscope perfusion chamber, and then recombinant katanin subunits were introduced. The time elapsed after perfusing p60/p80 (0.1 μM), p60 (0.1 μM), or p80 (0.5 μM) is shown. The recombinant co-expressed p60/p80 and p60, but not p80, can sever and disassemble microtubules. Scale bar, 10 μm.
Microscope-based severing assays were performed using previously published procedures (McNally and Vale (1993) Cell, 75: 419-429), except that microtubules were immobilized by first perfusing flow cells with a bacterially expressed kinesin mutant that binds strongly to microtubules but is unable to hydrolyze ATP (K560, G234A mutant; R. Vale and E. Taylor, unpublished results). Assays were performed in 20 mM Hepes (pH 7.5), 2 mM MgCl2, 1 mM ATP with an oxygen scavenger system consisting of glucose oxidase (220 μg/ml), catalase (36 μg/ml), glucose (22.5 mM), and 2-mercaptoethanol (71.5 mM). Images were captured using a cooled, slow-scan CCD (Photometerics) and processed using Adobe Photoshop.

The nature of data set [2]: ATPase assay (modified malachite green method). It is filed as biochemical. The conditions noted are these: baculovirus-expressed subunit alone. How it is done:
ATPase activity was measured by a modified malachite green method (Kodama et al. (1986) J. Biochem. 99: 1465-1472). ATPase reactions of 50-100 μl were carried out in a buffer previously used for measuring the ATPase activity of native katanin [20 mM K-HEPES pH 8.0, 25 mM potassium glutamate 2 mM MgCl2, 10% glycerol (v/v), 0.02% Triton X-100 (w/v), 1 mg/ml BSA] (McNally and Vale (1993) Cell, 75: 419-429), except that soybean trypsin inhibitor (SBTI) was replaced by BSA as a carrier protein because SBTI increased background phosphate contamination. An ATP regenerating system, consisting of 0.5-1.0 mM phosphoenol pyruvate and 2 units of pyruvate kinase, was included to minimize the inhibition by ADP observed previously for native katanin (McNally and Vale (1993) Cell, 75: 419-429). Microtubules were prepared from bovine brain tubulin (Hyman et al. (1990) Meth. Enzymol. 196: 303-319; and Williams and Lee (1982) Meth Enzymol. 85B: 376-385). After assembly, microtubules were sedimented (230,000×g; 10 min), resuspended in ATPase buffer lacking BSA, and the polymers were resuspended by repeated passage through a 27 gauge needle. Microtubule concentration was determined by measuring the absorbance at 275 nm in 6 M guanidine HCl by using a molecular mass of 110 kDa and an extinction coefficient of 1.03 ml mg^−1 cm^−1 (Hackney (1988) Proc. Natl. Acad Sci. USA, 85: 6314-6318). ATPase reactions were carried out at room temperature, and were initiated by addition of katanin.

For data set [3], the system named is DAPI-labeled microtubules. The data set can be described thus: DAPI fluorescence microtubule disassembly (severing) assay. The conditions noted are these: 2 μM microtubules. It is filed as biochemical, bovine. From the text: To better compare the microtubule severing activities of p60 and p60/p80, we developed a quantitative microtubule disassembly assay based upon a previous finding that DAPI fluorescence intensity is higher when this dye is bound to polymerized versus free tubulin (Heusele et al. (1987) Eur. J Biochem. 165: 613-620). […] This slower rate of microtubule disassembly is consistent with the previously described 2-fold decrease in ATPase activity of p60 compared with p60/p80.
ATPase activity was measured by a modified malachite green method (Kodama et al. (1986) J. Biochem. 99: 1465-1472). […] Microtubule concentration was determined by measuring the absorbance at 275 nm in 6 M guanidine HCl by using a molecular mass of 110 kDa and an extinction coefficient of 1.03 ml mg^−1 cm^−1 (Hackney (1988) Proc. Natl. Acad Sci. USA, 85: 6314-6318). […]
DAPI severing assays were performed using conditions where the change in fluorescence intensity was linear with the amount of tubulin polymer added (Heusele et al. (1987) Eur. J Biochem. 165: 613-620). […] The reaction volume was 80 μL, and fluorescence intensity was measured by exciting at 370 nm. and measuring the emission at 450 mn using a model 8100 fluorimeter (SLM Instruments) in photon counting mode.

B1: p80 WD40-GFP: fusion of the six WD40 repeats of human p80 katanin (a.a. 1-263) to the N-terminus of green fluorescent protein (protein)
chain: MATPVVTKTAWKLQEIVAHASNVSSLVLGKASGRLLATGGDDCRVNLWSINKPNCIMSLTGHTSPVESVRLNTPEELIVAGSQSGSIRVWDLEAAKILRTLMGHKANICSLDFHPYGEFVASGSQDTNIKLWDIRRKGCVFRYRGHSQAVRCLRFSPDGKWLASAADDHTVKLWDLTAGKMMSEFPGHTGPVNVVEFHPNEYLLASGSSDRTIRFWDLEKFQVVSCIEGEPGPVRSVLFNPDGCCLYSGCQDSLRVYGWEPER
modifications: left off: large carriers
notes: fusion of the six WD40 repeats of human p80 katanin (a.a. 1-263) to the N-terminus of green fluorescent protein
Consider B1, for which the “localization of GFP fluorescence” value in the data set with MSU1.1 human fibroblasts is “co-localized with γ-tubulin staining”.

B2: p80: S. purpuratus katanin p80 subunit, 690 a.a. with six WD40 repeats (SEQ ID NO:2), baculovirus-expressed, His-tagged (protein, listed as Strongylocentrotus purpuratus)
chain: MATKRAWKLQELVAHSSNVNCLALGPMSGRVMVTGGEDKKVNLWAVGKQNCIISLSGHTSPVDSVKFNSSEELVVAGSQSGTMKIYDLEPAKIVRTLTGHRNSIRCMDFHPFGEFVASGSTDTNVKLWDVRRKGCIYTYKGHSDQVNMIKFSPDGKWLVTASEDTTIKLWDLTMGKLFQEFKNHTGGVTGIEFHPNEFLLASGSSDRTVQFWDLETFQLVSSTSPGASAVRSISFHPDGSYLFCSSQDMLHAFGWEPIRCFDTFSVGWGKVADTVIASTQLIGASFNATNVSVYVADLSRMSTTGIAQEPQSQPSKTPSGGAEEVPSKPLTASGRKNFVRERPHTTSSKQRQPDVKSEPERQSPTQDEGVKDDDATDIKDPDSYAKIFSPKTRVDHSPERNAQPFPAPLDVPGAQEPEPFKHPPKPAAAAAVAPVSRAPAPSASDWQPAQANPAPNRVPAATKPVPAQEVAPSRKPDPISTIIPSDRNKPANLDMDAFLPPAHAQQAPRVNAPASRKQSDSERIEGLRKGHDSMCQVLSSRHRNLDVVRAIWTAGDAKTSVESVVNMKDQAILVDILNIMLLKKSLWNLDMCVVVLPRLKELLSSKYENYVHTSCACLKLILKNFTSLFNQNIKCPPSGIDITREERYNKCSKCYSYLIATRGYVEEKQHVSGKLGSSFRELHLLLDQLE
modifications: His tag; katanin p80 subunit
For the molecule B2, the “microtubule severing (in words)” value in data set [1] is “unable to sever microtubules”. Further, the “ATPase activity (in words)” value in data set [2] was “no detectable ATPase activity”. Moreover, in data set [3], the “change in DAPI fluorescence (in words)” value was “did not cause a change in fluorescence that was different from that shown for microtubules alone”.

(Values after patent US6429304B1, “Nucleic acids encoding a katanin p60 subunit” (The Regents of the University of California, priority 1998, dated 2002).)
